Experimental data as given in patent publication US20250340631A1.

Columns and labels:
human CLDN18.2 (human) [1] = test: competition FACS on HEK293/hCLDN18.2 cells; competitor 200 nM biotinylated PR004549; isotype is the reference of the formula
human CLDN18.2 (human) [2] = test: competition FACS on HEK293/hCLDN18.2 cells; competitor 10 nM biotinylated PR000400; isotype is the reference of the formula
[3] = biological target: Biotinylated murine CD3E&D (murine) (UniProt P22646); test: BLI (Octet), biotinylated CD3 on SA sensor, 1:1 global fit
Biotinylated murine CD3E&D (murine), sequence (P22646 22-108, chain 1 of 2): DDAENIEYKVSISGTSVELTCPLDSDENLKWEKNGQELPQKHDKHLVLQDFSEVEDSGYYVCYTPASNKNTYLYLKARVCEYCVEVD
Biotinylated murine CD3E&D (murine), sequence (P04235 22-105, chain 2 of 2, further chain): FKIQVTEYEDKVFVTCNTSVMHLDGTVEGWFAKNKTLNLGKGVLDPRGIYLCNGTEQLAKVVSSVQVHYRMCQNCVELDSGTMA

Substance | Maximum inhibition rate (%) (human CLDN18.2 (human) [1]) | Maximum inhibition rate (%) (human CLDN18.2 (human) [2]) | Kd [3] [nM] | koff [3] [s⁻¹] | kon [3] [M⁻¹ s⁻¹]
Iso hIgG1 (CrownBio, C0001-4) (antibody) | 0 | 0 | – | – | –
anti-CD3e 48-2B (santa cruz biotechnology, SC-1174) (antibody) | – | – | 0.171 | 0.000137 | 803000
